Test: yeast display, Sf9 membrane polyspecificity reagent, FACS + sequencing; frameworks hold sequencing errors
Procedure, shortened: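 A synthetic nanobody library was expressed on Saccharomyces cerevisiae BJ5465 by galactose induction for 36–48 hours. The library was stained for 1 hour at 4 °C with 10% biotinylated, detergent-solubilized Sf9 membrane reagent and enriched with streptavidin microbeads before FACS. Low and high (top ~1%) gates were set on anti-HA fluorescence for expression and streptavidin fluorescence for reagent binding, and each polyreactivity label reflects the gate of origin.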

Row | Sequence | polyreactivity (PSR sort gate)
1 | QVQLVESGGGLVQAGGSLRLSCAASGITFKYTAMGWYRQAPGKERELVAAISRRGGRTYYADSVKGRFTISRDNAKNTVYLQMNSLKPEDTAVYYCNVETWSVGGREYDYWGQGTQVTVSS | high polyreactivity
2 | QVQLVESGGGLVQAGGSLRLSCAASGITFKYYAMGWYRQAPGKERELVADISWGGGSTYYADSVKGRFTISRDNAKNTVYLQMNSLKPEDTAVYYCAAEYSGSYYSFWMVYWGLGTQVTVSS | low polyreactivity
3 | QVQLVESGGGLVQAGGSLRLSCAASGITFLANAMGWYRQAPGKERELVATITSRGASTYYADSVKGRFTISRDNAKNTVYLQMNSLKPEDSAVYYCAATVRRRYERYNYWGQGTQVTVSS | high polyreactivity
4 | QVQLVESGGGLVQAGGSLRLSCAASGITFLDYTMGWYRQAPGKERELVATISKSGGSTYYADSVKGRFTISRDNAKNTVYLQMNSLKPEDTAVYYFAARGFSFWRYYYWGQGTQVTVSS | high polyreactivity
5 | QVQLVESGGGLVQAGGSLRLSCAASGITFLPYAMGWYRPEPGKERELVAAITRGGGSTYADSVKGRFTISRDNAKNTVYLQMNSLKPEDTAVYYCNAKGRGWTAQYDYWGQGTQVTVSS | low polyreactivity
6 | QVQLVESGGGLVQAGGSLRLSCAASGITFLPYTMGWYRQAPGKERELVATISWNGGSTYYADSVKGRFTISRDNAKNTVYLQMNSLKPEDTAVYYCATGKWGYFRYNYWGQGTQVTVSS | high polyreactivity
7 | QVQLVESGGGLVQAGGSLRLSCAASGITFLTYAMGWYRQSPGKDRELVASITYSGGTTYYADSVKGRFTISRDNAKNTVYLQMNSLQPEDTAVYYCNTDWRTSVGYDYWGQGTQVTVSS | low polyreactivity
8 | QVQLVESGGGLVQAGGSLRLSCAASGITFLTYTMGWYRQAPGKERELVAAISRSGGRTYYADSVKGRFTISRDNAKNTVYFQMNSLKPEDTAVYYCAAVSANQDFDYWGQGTQVTVSS | high polyreactivity
9 | QVQLVESGGGLVQAGGSLRLSCAASGITFLYYTRGWYRPAPGKERELVASISRSGNTYYADSVKGRFTISRDNAKNTVYLQMNSLKPEDTAVYYCAAKRKSYYSYNFDYWGQGTQVTVSS | high polyreactivity
10 | QVQLVESGGGLVQAGGSLRLSCAASGITFNAYAMGLYRQAPGKERELVAAISRSGGSTYYADSVKGRFTISRDNANNTVYLQMNSLKPEDTAVYYCAVDYRTRGDYWGQGTQVTVSS | high polyreactivity
11 | QVQLVESGGGLVQAGGSLRLSCAASGITFNDNAMGWYRQAPGKERELVAAINSGTGTYYADSVKGRFTISRDNAKNTVYLQMNSLKPEDTAVYYCAADSRPYLRDYWGQGTQVTVSS | low polyreactivity
12 | QVQLVESGGGLVQAGGSLRLSCAASGITFNEYAMGWYIQAPGKERELVAAISRRGGSTYYADSVKGRFTISRDNAKNTVYLQMNSLKPEDTAVYYCAAYYPSHEYSGFWSDTYEYWGQGTQVTVSS | low polyreactivity
13 | QVQLVESGGGLVQAGGSLRLSCAASGITFNRYAMGWYRQAPGKERELVATISYRGGSTSYADSVKGRFTISRDNAKNTVYLQMNSLKPEDTAVYYCATDEGYVLFKYYSWGQGTQVTVSS | low polyreactivity
14 | QVQLVESGGGLVQAGGSLRLSCAASGITFNSYAMGWYRQAPGKERELVAAISGSGSSTYYADSVKGRFTISRDNAKNTVYLQMNSLKPEDTAVYYCAATVYSSWTYYTHEYWGQGTQVTVSS | low polyreactivity
15 | QVQLVESGGGLVQAGGSLRLSCAASGITFNTYAMGWYRQAPGKERELVAVITWSDGGTYYADSVKGRFTISRDNAKNTVYLQMNSLKPEDTAVYYCAKVLGGLRHGEVLDEYDYWGQGTQVTVSS | low polyreactivity
16 | QVQLVESGGGLVQAGGSLRLSCAASGITFNYYVKGWYRQAPGKERELVAAIRRGGSTNYADSVKGRFTISRDNAKNTVYLQMNSLKPEDTAVYYCASRTYRGLAYDYWGQGTQVTVSS | high polyreactivity
17 | QVQLVESGGGLVQAGGSLRLSCAASGITFPDYAMGWYRQAPGKERELVASISDSGGNTYYADSVKGRFTISRDNAKNTVYLQMNSLKPEDTAVYYCAVDSWYYYIVLYDYWGQGTQVTVSS | high polyreactivity
18 | QVQLVESGGGLVQAGGSLRLSCAASGITFPGYAMGSYRQAPGKERELVAVIRKSGTSTYYADSVKGRFTISRDNAKNTVYLQMNSLKPEDTAVYYCAAGGPSTLDDYWGQGTQVTVSS | low polyreactivity
19 | QVQLVESGGGLVQAGGSLRLSCAASGITFPGYAMGWYRQAPGKERELVAAIDWSGDGTYYADSVKGRFTISRDNAKNTVYLQMNSLKPEDTAVYYCAKDNYPNHSTVLAVIYDYWGQGTQVTVSS | low polyreactivity
20 | QVQLVESGGGLVQAGGSLRLSCAASGITFPHYAMGWYRQAPGKERELVAAISSSGGRTYYADSVKGRFTISRDNAKNTVYFQMNSLKPEDTAVYYCNKLRYPLLPPKYYYWGQGTQVTVSS | high polyreactivity
21 | QVQLVESGGGLVQAGGSLRLSCAASGITFPKYAMGWYRQAPGKERELVAAITKSGGSTYYADSVKGRFTISRDNAKNTVYLQMNSLKPEDTAVYYCAVVSRGITKYDYWGQGTQVTVSS | high polyreactivity

Row | Sequence | polyreactivity (PSR sort gate)
22 | QVQLVESGGGLVQAGGSLRLSCAASGITFPLYVMGWYRQAPGKERELVAAISASGGSTYADSVKGRFTISRDNAKNTVYLQMNSLKPEDTAVYYCNADVYVGYEYVYWGQGTQVTVSS | low polyreactivity
23 | QVQLVESGGGLVQAGGSLRLSCAASGITFPRNAMGWYRQAPGKERELVAAISARGGNTYYADSVKGRFTISRDNSKNTGYLQMIRLKPEDTAVYDCNALGSSFSEPSEYDYWGQGTQVTVSS | low polyreactivity
24 | QVQLVESGGGLVQAGGSLRLSCAASGITFPRNAMGWYRQAPGKERELVAAISARGGNTYYADSVKGRFTISRDNSKNTVYLQMNSLKPEDTAVYYCNALGSSYSEPSEYDYWGQGTQVTVSS | low polyreactivity
25 | QVQLVESGGGLVQAGGSLRLSCAASGITFPRYTMGWYRPAPGKERELVAAISSGGSTYYADSVKGRFTISRDNAKNTVYLQMNSLKPEDTAVYYCNAVVPYWYYIYDYWGQGTQVTVSS | high polyreactivity
26 | QVQLVESGGGLVQAGGSLRLSCAASGITFPSYVMGWYRQAPGKEREFVAAITGSAGSTYYADSVKGRFTISRDNAKNTVYLQMNSLKPEDTAVYYCAARVRYVNPKYYYWGQGTQVTVSS | high polyreactivity
27 | QVQLVESGGGLVQAGGSLRLSCAASGITFPVYAMGWYRQAPGKEREFVASIRFSTGRTYYADSVKARFTISRDYAKNTVYLQMNSLKPEDTAVYYCRGTTQSPYNSWGQGTQVTVSS | high polyreactivity
28 | QVQLVESGGGLVQAGGSLRLSCAASGITFPYNAMGWYRQAPGKERELVADISSSGGITYYADSVKGRFTISRDNAKNTVYLQMNSLKPEDTAVYYCAVRKYGYGFEMDYWGQGTQVTVSS | low polyreactivity
29 | QVQLVESGGGLVQAGGSLRLSCAASGITFQRYAMGWYRQAPGKERELVAAITRRGGSTYYADSVKGRFTISRDNAKNTVYLQMNILKPEDTAVYYCAADLFFKARGYDYWGQGTQVTVSS | high polyreactivity
30 | QVQLVESGGGLVQAGGSLRLSCAASGITFQWYAMGWYRQAPGKERELVAAITYRGGSTYYADSVKGRFTISRDNAKNTVYLQMNSLKPEDTAVYYCARDHSRHLHPSWLDYWGQGTQVTVSS | high polyreactivity
31 | QVQLVESGGGLVQAGGSLRLSCAASGITFQYYAMGWYRQAPGKERELVASISYRGGRTYYADSVKGRFTISRDNAKNTVYLQMNSLKQEDTSVYYCAADWRYTTFWTLRYYGFDYWGQGTQVTVSS | high polyreactivity
32 | QVQLVESGGGLVQAGGSLRLSCAASGITFRAYALGWYRQAPGKEREFVAAISWRGGSTYYADSVKGRFTISRDNAKNTVYLQMNSLKPEDTAVYYCAVGSYDHDYWYEYWGQGTQVTVSS | high polyreactivity
33 | QVQLVESGGGLVQAGGSLRLSCAASGITFRFNARVWYRQEPGKEREFVAAITYSGDSTYYADSVKGRFTISRDNAKNTVYLQMNSLKPEDTAVYYCAADYYAISRRIFYYWGQGTQVTVSS | low polyreactivity
34 | QVQLVESGGGLVQAGGSLRLSCAASGITFRFYALGWYRKAPGKEREFVAAISSRGGRTYYADSVKGRFTISRDHAKNTVYLQMNSLKPEDTAVYYCAADFYYRTVATVTSVARYDYWGQGTQVTVLS | high polyreactivity
35 | QVQLVESGGGLVQAGGSLRLSCAASGITFRFYAMGWYRQAPGKERELVAAISWSGGSTNYADSVKGRFTISRDNAKNTVYLQLNSLKPEDTAVYYCAADQYYYRYIRTSKYDYWGQGTQVTVSS | high polyreactivity
36 | QVQLVESGGGLVQAGGSLRLSCAASGITFRFYAMGWYRQPPGKERELVAAITSGGGTYYADSVKGRFTISRDNAKNTVYLQMNSLKPEDTAVYYCAAYQYNRKRHNYWGLGTQVTVSS | high polyreactivity
37 | QVQLVESGGGLVQAGGSLRLSCAASGITFRGYAMGWYRKAPGKERELVASITNTDSTYYADSVKGRFTISRDNAKNTVYLQMNSLKPEDTAVYYCAARRGRKYGYWGQGTQVTVSS | high polyreactivity
38 | QVQLVESGGGLVQAGGSLRLSCAASGITFRGYAMGWYRQAPGKERELVAAITWSGGSTYYADSVKGRFTISRDNAKNTVYLQMNSLKPEDTAVYYCAAYSLHNYLSEYGYWGQGTQVTVSS | high polyreactivity
39 | QVQLVESGGGLVQAGGSLRLSCAASGITFRGYAMGWYRQAPGKERELVATISSGGSTNYADSVKGRFTISRDNAKNTVDLQRISLKPEDTAVYYCNAVYRRGYGYWGQGTQVTVSS | high polyreactivity
40 | QVQLVESGGGLVQAGGSLRLSCAASGITFRKYAMGWSRQAPGKERELVAAISAGGGRTFYADSVKGRFTISRDNAKNTVYLQMNSLKPEDTAVYYCNADLGIGYDYWGQGTQVTVSS | high polyreactivity
41 | QVQLVESGGGLVQAGGSLRLSCAASGITFRPYPMGWYRQAPGKERELVATINWSGGSTYYADSVKGRFTISRDNAKKTVYLQMNSLKPEDTAVSYCAVTWYVRRWYGYWGQGTQVTVSS | high polyreactivity

From the nanobody polyreactivity screen of Harvey et al. (2022)
